From paper PMC7712654

Biological target: α-CT coiled-coil domain fused with HIS tag (α-CT-His), fluorescently labeled (Arabidopsis thaliana)
Experiment: MST
Settings: domain or fragment

Sequence of α-CT coiled-coil domain fused with HIS tag (α-CT-His), fluorescently labeled (Arabidopsis thaliana) (Q9LD43 420-769): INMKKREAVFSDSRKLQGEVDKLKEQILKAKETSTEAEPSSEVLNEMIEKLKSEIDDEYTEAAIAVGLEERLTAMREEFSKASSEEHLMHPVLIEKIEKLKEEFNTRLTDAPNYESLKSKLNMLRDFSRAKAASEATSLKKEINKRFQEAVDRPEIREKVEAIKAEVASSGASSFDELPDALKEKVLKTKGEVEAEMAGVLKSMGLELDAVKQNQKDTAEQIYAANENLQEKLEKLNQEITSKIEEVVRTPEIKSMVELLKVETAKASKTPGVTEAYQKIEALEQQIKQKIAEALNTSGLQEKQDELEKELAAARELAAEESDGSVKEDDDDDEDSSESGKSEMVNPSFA

Kd: 1400 nM
Substance: coiled-coil domain of CTI2, GST tag removed by thrombin
